Reference: patent US20180371066A1 (C2N DIAGNOSTICS, published 2018)

Legend:
human tau = target: T1, human tau (human, UniProt P10636 2-60); test: competition ELISA on plate-coated human tau against biotinylated HJ8.5; IC50 normalised to chimeric HJ8.5; column C2N Run 1
T1 construct: also called soluble human tau; human tau protein

PEP_2875820 = target: T2, PEP_2875820; test: peptide array of 15-mers of human tau probed with the antibody; label LIN
T2 peptide: RKDQGGYTMHQDQEG

PEP_2875822 = target: T3, PEP_2875822; test: as above
T3 peptide: KDQGGYTMHQDQEGD

PEP_2875808 = target: T4, PEP_2875808; test: as above
T4 peptide: TYGLGDRKDQGGYTM

PEP_2875806 = target: T5, PEP_2875806; test: as above
T5 peptide: GTYGLGDRKDQGGYT

PEP_2875826 = target: T6, PEP_2875826; test: as above
T6 peptide: QGGYTMHQDQEGDTD

PEP_2875818 = target: T7, PEP_2875818; test: as above
T7 peptide: DRKDQGGYTMHQDQE

[1] = target: T8, recombinant human Tau-412 protein (human, UniProt P10636-7 1-412); test: SPR Biacore T200, mAb captured on Protein A, Tau-412 analyte, 1-to-1 model, chip A11/3
T8 construct: Analyte of the SPR study; also called human tau (1N4R, 412 amino acids)
T8 sequence (P10636 other isoform, or with tags, fused parts or gaps limits assumed): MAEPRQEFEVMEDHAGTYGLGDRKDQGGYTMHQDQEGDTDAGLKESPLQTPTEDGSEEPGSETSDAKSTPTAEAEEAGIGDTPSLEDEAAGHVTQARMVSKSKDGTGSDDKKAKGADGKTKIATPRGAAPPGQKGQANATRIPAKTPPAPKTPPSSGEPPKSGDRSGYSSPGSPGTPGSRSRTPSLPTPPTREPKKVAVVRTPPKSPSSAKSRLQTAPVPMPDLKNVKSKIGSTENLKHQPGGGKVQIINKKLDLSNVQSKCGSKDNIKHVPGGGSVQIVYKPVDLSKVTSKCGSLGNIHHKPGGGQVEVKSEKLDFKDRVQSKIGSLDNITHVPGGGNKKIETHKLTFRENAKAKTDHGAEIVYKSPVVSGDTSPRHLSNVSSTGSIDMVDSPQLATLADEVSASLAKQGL
Protocol: Kinetic data was obtained at a flow rate of 40 μL/min to minimize any potential mass transfer effects. Two repeats of the blank (no antigen) and the 2.5 nM concentration of the analyte were programmed into the kinetic run in order to check the stability of both the surface and analyte over the kinetic cycles. For the initial kinetic runs, 2-fold dilutions of Tau-412 from 40 nM to 0.156 nM were run. For kinetic analysis and on subsequent runs, an analyte range of 20 nM to 0.625 nM was selected. This range covered multiple analyte concentrations both above and below the reported KD.
The association phase was monitored for 500 seconds to allow some of the higher concentrations of analyte to reach steady state. In order to observe a sufficient signal decrease (>10%) during the dissociation phase of the kinetic cycle, dissociation was measured for 1200 seconds. As discussed in Section 5, the Fcs were allowed to stabilize for 600 seconds after each regeneration step. The signal from the reference channel Fc1 was subtracted from that of Fc2, Fc3 and Fc4.
The kinetic parameters for the interaction of Tau-412 with the 7 mAbs as measured using the Protein A capture system on the Biacore T200 are shown in Table F-2. To correct for differences in the capture level of the antibody between each binding cycle, a local Rₘₐₓ parameter was used in the 1-to-1 binding model. Kinetic analysis was performed in three independent runs using fresh preparations of Tau-412 and antibody. Run 1 and runs 2+3 used different vials of the antigen Tau-412; therefore the reported errors associated with the mean response probably represent variation in preparation of the analyte and differences in assay set-up and run. From run 1 to runs 2+3, the amount of antibody injected was adjusted to try to get closer to the target 300 RU capture levels.

T1 sequence (P10636 2-60 limits assumed): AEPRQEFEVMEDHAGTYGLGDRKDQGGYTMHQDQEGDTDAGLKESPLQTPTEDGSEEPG

IC50 (Relative to Chimera) (human tau): 1.34 relative to Chimera
Binding Signal (PEP_2875820): 2780
Binding Signal (PEP_2875822): 2680
Binding Signal (PEP_2875808): 2590
Binding Signal (PEP_2875806): 1710
Binding Signal (PEP_2875826): 789
Binding Signal (PEP_2875818): 2790
Kd [1]: 1.95 nM
koff [1]: 0.000632 s⁻¹
kon [1]: 325000 M⁻¹ s⁻¹
B1: VH1/VK2 humanized anti-tau antibody (C2N-8E12) (antibody, human IgG4 S228P, kappa, V domains shown)
VH: EVKVVESGGGLVQPGGSMKLSCVVSGFTFSNYWVNWVRQAPGKGLEWVAQIRLKSDNYATHYEESVKGRFTISRDDSKSSVYLQMNNLRAEDSGIYYCTNWEDYWGQGTTVTVSS
VL: DIVLTQSPDSLAVSLGERATISCRASQSVSTSRYSYIHWYQQKPGQPPKLLIKYASNLESGVPSRFSGSGSGTDFTLNIHPLEPEDFATYYCHHSWEIPLTFGQGTKLEIKR
notes: Humanized recombinant IgG4 with S241P hinge mutation, human kappa light chain; also called C2N-8EI2
